Measured values from paper PMC4092090, “Investigation of a MMP-2 Activity-Dependent Anchoring Probe for Nuclear Imaging of Cancer” (PLoS ONE, 2014).
Like-named read-outs stand apart in the source and are kept apart here.

Test system: HT1080 tumor bearing mice
Parameters: species or system mouse (Balb/c nu-nu)
Details: mouse, in vivo, iv; for Radioactivity biodistribution, Blood / Radioactivity biodistribution, Heart / Radioactivity biodistribution, Intestine / Radioactivity biodistribution, Kidneys / Radioactivity biodistribution, Liver / Radioactivity biodistribution, Lung / Radioactivity biodistribution, Muscle / Radioactivity biodistribution, Pancreas / Radioactivity biodistribution, Spleen / Radioactivity biodistribution, Stomach / Radioactivity biodistribution, Tumor / T/B (tumor to blood ratio): 37 kBq
Method: Female Balb/c nu-nu mice (5 weeks old, Japan SLC, Inc., Shizuoka, Japan) were housed under a 12-h light/12-h dark cycle and given free access to food and water. HT1080 cells (5×10^6 cells/100 μl PBS (-)/mouse) were subcutaneously inoculated into the right hind leg of Balb/c nu-nu mice. Animals were used for experiments two weeks after inoculation when the mean tumor size was 5.7±2.2 mm along the major axis. […]3000 and […] (37 kBq, 100 μl in PBS including 3% bovine serum albumin and 0.1% Tween 80) were injected intravenously into the tail vein of tumor bearing mice. The mice were sacrificed at various post-injection time points (n = 3 for each time point), and the organs of interest including the tumor tissues were collected for determination of the weights. The radioactivity of each sample was measured with a NaI well-type scintillation counter. From fitting to the two phase decay curves for blood radioactivity data analyzed by GraphPad Prism 6 (GraphPad Software, San Diego, CA), whole body pharmacokinetic parameters such as blood half-lives, distribution volume, mean residence time and total clearance were calculated for each of the probes and the values compared. Simple pharmacokinetic analysis using a single tissue compartment model was applied to the biodistribution data to calculate rate constants (K1 and k2) for radioactivity transfer from blood to tumor and clearance from tumor to blood by PMOD version 3.2. In addition, MDAP3000 (7.4 MBq in 200 μl) was injected intravenously into the tail vein of tumor bearing mice for metabolite analysis in tumors excised 3, 6, and 24 hr post injection (n = 2 each). Tumor homogenates were prepared on ice and insoluble material was removed by centrifugation after methanol treatment. The resulting supernatant was analyzed by RP-HPLC.

Substance: Palmitoyl-Dap(p-SCN-Bn-DTPA-^111In)-10-Adc-Gly-Pro-Leu-Gly-Val-Arg-Gly-Lys(ivDde)-PEG1000 [MDAP1000]
- Blood clearance (in words): rapid blood clearance
- Tumor accumulation (in words): low tumor accumulation
- Radioactivity biodistribution, Blood (0.25 h): 46.93±5.71 % injected dose per gram
- Radioactivity biodistribution, Heart (0.25 h): 9.40±2.03 % injected dose per gram
- Radioactivity biodistribution, Intestine (0.25 h): 4.18±0.58 % injected dose per gram
- Radioactivity biodistribution, Kidneys (0.25 h): 14.24±1.90 % injected dose per gram
- Radioactivity biodistribution, Liver (0.25 h): 34.27±5.87 % injected dose per gram
- Radioactivity biodistribution, Lung (0.25 h): 21.23±2.65 % injected dose per gram
- Radioactivity biodistribution, Muscle (0.25 h): 2.15±0.57 % injected dose per gram
- Radioactivity biodistribution, Pancreas (0.25 h): 4.28±0.41 % injected dose per gram
- Radioactivity biodistribution, Spleen (0.25 h): 8.06±0.23 % injected dose per gram
- Radioactivity biodistribution, Stomach (0.25 h): 1.03±0.15 % injected dose per organ
- Radioactivity biodistribution, Tumor (0.25 h): 1.70±0.85 % injected dose per gram
- T/B (tumor to blood ratio) (0.25 h): 0.04±0.01
- Radioactivity biodistribution, Blood (1 h): 24.81±3.60 % injected dose per gram
- Radioactivity biodistribution, Heart (1 h): 8.43±1.19 % injected dose per gram
- Radioactivity biodistribution, Intestine (1 h): 8.97±0.28 % injected dose per gram
- Radioactivity biodistribution, Kidneys (1 h): 11.66±1.17 % injected dose per gram
- Radioactivity biodistribution, Liver (1 h): 42.27±8.44 % injected dose per gram
- Radioactivity biodistribution, Lung (1 h): 12.56±1.70 % injected dose per gram
- Radioactivity biodistribution, Muscle (1 h): 1.94±0.33 % injected dose per gram
- Radioactivity biodistribution, Pancreas (1 h): 5.52±1.05 % injected dose per gram
- Radioactivity biodistribution, Spleen (1 h): 7.72±1.86 % injected dose per gram
- Radioactivity biodistribution, Stomach (1 h): 1.13±0.21 % injected dose per organ
- Radioactivity biodistribution, Tumor (1 h): 1.90±0.38 % injected dose per gram
- T/B (tumor to blood ratio) (1 h): 0.08±0.02
- Radioactivity biodistribution, Blood (3 h): 10.58±1.28 % injected dose per gram
- Radioactivity biodistribution, Heart (3 h): 7.47±0.45 % injected dose per gram
- Radioactivity biodistribution, Intestine (3 h): 20.39±4.51 % injected dose per gram
- Radioactivity biodistribution, Kidneys (3 h): 10.56±1.49 % injected dose per gram
- Radioactivity biodistribution, Liver (3 h): 50.70±7.52 % injected dose per gram
- Radioactivity biodistribution, Lung (3 h): 6.17±0.88 % injected dose per gram
- Radioactivity biodistribution, Muscle (3 h): 2.00±0.38 % injected dose per gram
- Radioactivity biodistribution, Pancreas (3 h): 4.50±1.45 % injected dose per gram
- Radioactivity biodistribution, Spleen (3 h): 10.01±3.77 % injected dose per gram
- Radioactivity biodistribution, Stomach (3 h): 1.14±0.33 % injected dose per organ
- Radioactivity biodistribution, Tumor (3 h): 2.65±0.33 % injected dose per gram
- T/B (tumor to blood ratio) (3 h): 0.25±0.05
- Radioactivity biodistribution, Blood (6 h): 5.85±0.74 % injected dose per gram
- Radioactivity biodistribution, Heart (6 h): 5.71±0.61 % injected dose per gram
- Radioactivity biodistribution, Intestine (6 h): 13.23±3.92 % injected dose per gram
- Radioactivity biodistribution, Kidneys (6 h): 9.53±1.08 % injected dose per gram
- Radioactivity biodistribution, Liver (6 h): 30.08±5.98 % injected dose per gram
- Radioactivity biodistribution, Lung (6 h): 4.38±0.32 % injected dose per gram
- Radioactivity biodistribution, Muscle (6 h): 1.68±0.46 % injected dose per gram
- Radioactivity biodistribution, Pancreas (6 h): 5.53±1.77 % injected dose per gram
- Radioactivity biodistribution, Spleen (6 h): 10.00±2.61 % injected dose per gram
- Radioactivity biodistribution, Stomach (6 h): 0.73±0.06 % injected dose per organ
- Radioactivity biodistribution, Tumor (6 h): 3.18±0.69 % injected dose per gram
- T/B (tumor to blood ratio) (6 h): 0.55±0.15
- Radioactivity biodistribution, Blood (24 h): 5.26±0.94 % injected dose per gram
- Radioactivity biodistribution, Heart (24 h): 4.11±0.44 % injected dose per gram
- Radioactivity biodistribution, Intestine (24 h): 4.90±0.90 % injected dose per gram
- Radioactivity biodistribution, Kidneys (24 h): 7.01±0.45 % injected dose per gram
- Radioactivity biodistribution, Liver (24 h): 8.89±1.11 % injected dose per gram
- Radioactivity biodistribution, Lung (24 h): 2.63±0.28 % injected dose per gram
- Radioactivity biodistribution, Muscle (24 h): 1.55±0.13 % injected dose per gram
- Radioactivity biodistribution, Pancreas (24 h): 6.21±3.76 % injected dose per gram
- Radioactivity biodistribution, Spleen (24 h): 4.82±1.10 % injected dose per gram
- Radioactivity biodistribution, Stomach (24 h): 0.49±0.09 % injected dose per organ
- Radioactivity biodistribution, Tumor (24 h): 3.33±0.44 % injected dose per gram
- T/B (tumor to blood ratio) (24 h): 0.65±0.15
